Measurements taken from PMC9471973 (Computational and Structural Biotechnology Journal, 2022).
No end group written: not given here.

B1: mouse TRIM75 coiled-coil domain (residues 168-222) (domain or fragment, UniProt Q3UWZ0 168-222, looked up)
chain: VTLREQAEAQRSQLTSECEKLMRFLDQEERAAFSRLEDEEMRLEKRLLDNIAALE
modifications: also: homodimer: interchain disulfide between C185 of two chains
B2: mouse TRIM75 coiled-coil domain with the CCm9A mutation (domain or fragment, UniProt Q3UWZ0 168-222, looked up)
chain: VTLREQAEAAASQATSEAEKAMRAADQEARAAFSRAEDEEMRLEKRLLDNIAALE
B3: truncated mouse TRIM75 protein (136-467) containing the coiled coil and C-terminal domains, N-terminal FLAG tag (domain or fragment, UniProt Q3UWZ0 136-467, looked up)
chain: SLHRKHLQDYSKLLKWEVKEIQGLMSALNKRTVTLREQAEAQRSQLTSECEKLMRFLDQEERAAFSRLEDEEMRLEKRLLDNIAALEHHGSSLRDLLRHLMLTGELSEAKMLSTVKDFYLNCRRQLISPSIFPVQLRRVEYSFPLQYSALQKVIQHFTDNVTLDLKTAHPNLLISKDRTCVTFTKKRQRIPGSSSFTKSPVVLGIPHFNSGRHFWEVQVGKKPKWAIGICKADSSIGERQSPNPWGYWRIVWQGDSFNVSGADPDSRLKAARATSIGVFLDYELGEVSFYGMPEKCHLYTFRDTFSGPVCPYFYIGPQSEPLRLCSATDSEC
B4: full-length mouse TRIM75 with N-terminal FLAG tag (natural protein, UniProt Q3UWZ0 1-467, looked up)
chain: MAHVEVLARLQKETKCPICLDDLTDPVTVECGHNFCRSCIKDFWAGQQATSSCPVCRHQCQHRNLRSNAQLGNMIETAQLLQGMENKRHESSTSCERHNQALTLFCEDDLQLLCDQCVEPESHGRHQVLSITEAASLHRKHLQDYSKLLKWEVKEIQGLMSALNKRTVTLREQAEAQRSQLTSECEKLMRFLDQEERAAFSRLEDEEMRLEKRLLDNIAALEHHGSSLRDLLRHLMLTGELSEAKMLSTVKDFYLNCRRQLISPSIFPVQLRRVEYSFPLQYSALQKVIQHFTDNVTLDLKTAHPNLLISKDRTCVTFTKKRQRIPGSSSFTKSPVVLGIPHFNSGRHFWEVQVGKKPKWAIGICKADSSIGERQSPNPWGYWRIVWQGDSFNVSGADPDSRLKAARATSIGVFLDYELGEVSFYGMPEKCHLYTFRDTFSGPVCPYFYIGPQSEPLRLCSATDSEC

Assays:
[1] = molecular target: the molecule itself; assay: crystal structure
[2] = molecular target: the molecule itself; assay: cross-linking
[3] = molecular target: the molecule itself; assay: cross-linking; remark: listed apart in the source

Protein	stoichiometry N [3]	further results
B1		stoichiometry N [1]: 4
B2		stoichiometry N [2]: 2
B3	4	
B4	4	
